# B1: Stx2a B-subunit pentamer of the holotoxin (untagged) (natural protein)
# chain: ADCAKGKIEFSKYNEDDTFTVKVDGKEYWTSRWNLQPLLQSAQLTGMTVTIKSSTCESGSGFAEVQFNND
# Assays:
# Stx2a A-subunit = Stx2a A-subunit (enterohemorrhagic Escherichia coli, UniProt P09385 23-319); test: crystal structure; details: both partners purified
# crystal structure = target: the molecule itself; test: crystal structure
binder,measurement,setting,value
B1,binding result,Stx2a A-subunit,binds
same,binding result,crystal structure,binds

# From PMC8111002 (Communications Biology, 2021)
